Residue numbers refer to the chain shown, from its start. Names may count otherwise. Values belong to the binder of their own block, whether it stands above or below them.
What was measured:
[1] = biological target: the molecule itself; test: SEC
[2] = biological target: T1, bovine Adrenodoxin reductase (bovine, UniProt P08165 33-492); test: NMR titration
T1 sequence: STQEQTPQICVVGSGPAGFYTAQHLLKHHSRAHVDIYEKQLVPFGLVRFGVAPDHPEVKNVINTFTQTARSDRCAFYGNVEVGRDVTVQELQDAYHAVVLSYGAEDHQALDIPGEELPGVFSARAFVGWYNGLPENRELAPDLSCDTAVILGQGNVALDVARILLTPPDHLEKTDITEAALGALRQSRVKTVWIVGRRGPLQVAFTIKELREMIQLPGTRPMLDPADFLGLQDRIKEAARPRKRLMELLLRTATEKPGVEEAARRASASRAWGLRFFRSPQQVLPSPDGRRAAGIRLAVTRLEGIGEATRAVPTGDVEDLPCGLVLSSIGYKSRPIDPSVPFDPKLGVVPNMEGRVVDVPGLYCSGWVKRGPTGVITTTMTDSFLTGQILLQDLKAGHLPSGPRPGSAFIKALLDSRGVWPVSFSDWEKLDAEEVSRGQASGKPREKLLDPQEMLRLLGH

B1: full-length human Adrenodoxin with the L80V mutation (natural protein, UniProt P10109 62-184, looked up)
chain: SSEDKITVHFINRDGETLTTKGKVGDSLLDVVVENNLDIDGFGACEGTLACSTCHLIFEDHIYEKLDAITDEENDMLDVAYGLTDRSRLGCQICLTKSMDNMTVRVPETVADARQSIDVGKTS
- binding result [1]: binds

- binding result [2]: binds
B2: full-length human Adrenodoxin (Ferredoxin 1), hAdx (2–124) (natural protein, UniProt P10109 62-184, looked up)
chain: B1 chain with V79L
